19 sequences from the DeepSol protein solubility set can be followed below.

This series in a line: soluble on expression in E. coli; label from the status in PepcDB or PDB records.
For the sequence “MQNEGQYAEADALLLSLVAAKDAHLMGERTVLGLPRRLHAARLRLAKAEGDLVARIGYQYTLVPPPDMLAKYTQFSAEDRRMINRKSREDVPRLIHQIWIGEKAPPISVKAWAAHAARHGYDYRLWREADLEREGVFSNAIFNRMLSEGDYPGAVDVARYILLERFGGIYLDCDWYPARDDRSFDAFVPLAGLTAFDEKTPRDTGQGSMLLANSFIAAPAGHPVFRKMLDSFPGIIEEMPRAPAWWSTGPLIFTVIARAGSISLAPASFVAVTLADRAPLEEVEAIRRELATQDSGMLIAWKSWLEHHHHHH”, the “soluble on expression in E. coli” value is on record as “soluble”.

For the sequence “TVKSFVMRAGRMTEGQQRGLDLGWPKFGLELSDEVQDFDAIFGRQAPRTFEIGFGMGHSTLEMAAAAPDIDFIGVEVHKPGVGALLNGLLTQGLGNVRVYSCDALEVLRHCVADASLDRLLLFFPDPWHKKRHHKRRIVQPEFAELVRRKLKVGGVLHMATDWEPYAEHMLDVMSAAPGYRNQAEDGRFVPRPQERPVTKFERRGERLGHGVWDLKFER”, the “soluble on expression in E. coli” value was “not soluble”.

As to “MEHNILQVIALAEKLKYEMRHSWLSNGRQESVAEHTWRMSLMAILVEPYLDQKVSIEKLLKMVIIHDLVEAEAGDIPAFDTMNSHDLQLQKQKNELEAILNIKQTLTGSLGEELYDLWMEFEAKETYEAKVANALDKLEVKIQHNEADIDTWLPIEHKMTFQVAKHTNFDSFLSKLQKIIEQDGEKKLIAAGIDVEACKQ”, the “soluble on expression in E. coli” value is “soluble”.

On to “MSLLIKFESKSARVKGISFHPTRPWVLTSLHSGVIQLWDYRMCVLLEKFDEHDGPVRGICFHHDQPIFVSGGDDYKIKVWNYKQKRCIFTLLGHLDYIRTTFFHHKYPWIISASDDQTVRIWNWQSRNSIAILTGHNHYVMCAQFHPTEDLVASASLDQTVRVWDISGLRKKQMPGGGAPSRPTGGQQAELFGQPDAVVKHVLEGHDRGVNWVAFHHTNPILVSGSDDRQVKIWRYNETKAWELDSCRGHYNNVSSVIFHPNADLILSNSEDKSIRVWDMQKRTSLHVFRHENERFWVLAAHPSLNMFAAGHDNGMVVFKIQRERPAYCVSDNLVFYVKGQQIRKLDLTTNKDVALCKLRYPQPFMQPYYSLSFNPAEGTFLLTSRTHNKDLCAFELYKVASNSDGTTEAACVKSTGINALWVARNRFAVLDKAQNVSLRDLTNKELRKLENINTAVDDIFYAGTGMLLLRNDDGLQLFDVQQKIVTASVKVSKVRYVIWSKSMEFAALLSKHTLTLVNRKLEILCTQQESTRVKSGAWDDDSVFLYTTSNHIKYAINSGDCGIVRTLDLPLYILAIRGNVLYCLNRDATPVEVPIDNSDYKFKLALINKRIDEVVNMVRSANLVGQSIIGYLEKKGYPEIALHFVKDEKTRFGLAIECGNLEIALEAAKKLDEPAVWEALGETALLQGNHQIVEMSYQRTKNFEKLSFLYFVTGNTDKLVKMMKIAQARNDAHGHFQTALYTGDVEERVKVLRNCGQTSLAYLAAATHGYSAEAEELKAELESRQQPIPPVDPNARLLVPPPPVARLEENWPLLASARGTFDAQLLGLGGQSAPTNVGGVKPAAAAFAVMDDDDGDVGNEAWGDDEYLVGEDGELDVDEGEGPVDGDEEGGWDVDDDLALPDVTDDQGGDDDEEVVPNPAPAVSSEWPNVSRLAADHVAAGSFGTAIKLLHDTIGVVEAAPFKDVFVKAYAASRLSHRGWGGLGPAGPVSIHPVRNFQEDKNHLPVAAFKLSQLAKKLQKAYQMTTNGKFGDAVEKLREILLSVPLIVVSSKQEVAEAEQLITITREYLAALLLETYRKDLPKTNLEDAKRNAELAAYFTHFELQPMHRILTLRSAINTFFKMKQMKTCASLCKRLLELAPKPEVAAQIRKVLTAAEKDNTDAHQLTYDEHNPFVVCSRQFVPLYRGRPLCKCPYCGASYSEGLEGEVCNVCQVAEVGKNVLGLRISTLKS”, for which the “soluble on expression in E. coli” value is recorded as “not soluble”.

For “MGQLIDGVWHDTWYDTKSTGGKFQRSASAFRNWLTADGAPGPTGTGGFIAEKDRYHLYVSLACPWAHRTLIMRKLKGLEPFISVSVVNPLMLENGWTFDDSFPGATGDTLYQNEFLYQLYLHADPHYSGRVTVPVLWDKKNHTIVSNESAEIIRMFNTAFDALGAKAGDYYPPALQTKIDELNGWIYDTVNNGVYKAGFATSQEAYDEAVAKVFESLARLEQILGQHRYLTGNQLTEADIRLWTTLVRFDPVYVTHFKCDKHRISDYLNLYGFLRDIYQMPGIAETVNFDHIRNHYFRSHKTINPTGIISIGPWQDLDEPHGRDVRFGLEHHHHHH”, the “soluble on expression in E. coli” value is on record as “soluble”.

For the sequence “MGSDKIHHHHHHMIVINMFSSANKVAGQGVGAVYTELMGLLKHDFSNEFEVNVNRYTRSDISHYHTIDPKFYLSTFSKKRGRKIGFVHFVPSTLDASLKLPRVARWTLDKYTLAFYKRMDQLVVVNPNFIPKLEAYGISRDKVTYIPNFVSQRTFHPVSTEKRQALRHANGFKPDDFVIFGAGQVQDRKGVSDFIKLAKQNPEFRFVWAGGFSFGRITEGYDHLKKAVAEAPANLDFTGIMPRETMIDYYNMADVFLLPSYEELFPMSVLEAFATGTPVMVRDLELYHQIITPYAITAVDVDDMQSRLRALADDHDLLATYATKSRQAAEVYDESRLEKVWHDFYLHQAALGKH”, the “soluble on expression in E. coli” value was “not soluble”.

As to “QGHMPSDSKKPTIIYPCLWDYRVIMTTKDTSTLKELLETYQRPFKLEFKNTSKNAKFYSFNVSMEVSNESERNEIFQKISQLDKVVQTLGS”, the “soluble on expression in E. coli” value is “soluble”.

On to “MTFSLFGDKFTRHSGITLLMEDLNDGLRTPGAIMLGGGNPAQIPEMQDYFQTLLTDMLESGKATDALCNYDGPQGKTELLTLLAGMLREKLGWDIEAQNIALTNGSQSAFFYLFNLFAGRRADGRVKKVLFPLAPEYIGYADAGLEEDLFVSARPNIELLPEGQFKYHVDFEHLHIGEETGMICVSRPTNPTGNVITDEELLKLDALANQHGIPLVIDNAYGVPFPGIIFSEARPLWNPNIVLCMSLSKLGLPGSRCGIIIANEKIITAITNMNGIISLAPGGIGPAMMCEMIKRNDLLRLSETVIKPFYYQRVQETIAIIRRYLPEDRCLIHKPEGAIFLWLWFKDLPITTEQLYQRLKARGVLMVPGHNFFPGLDKPWPHTHQCMRMNYVPEPEKIEAGVKILAEEIERAWAESH”, for which the “soluble on expression in E. coli” value is “soluble”.

In the case of “MAHHHHHHMAEQFTEDIGVVNKRLLEPVPFVKTNNCIKDVDADLFIRSYATHLKLHNKITYPKWCTFVKTGKGRKLAPLNEDWYFIRASSILRRLYLHPDIGVGFLRRQFSSKQRRGVAPNHTSLASGKILRSILQQLENLGYVEQNPKKKGRRLTTKGENAINNFARYINKKVYNKE”, the “soluble on expression in E. coli” value was “not soluble”.

As to “MGSDKIHHHHHHMSLQRPDEKLKSDVLIGVGLRHQHFTEALTTPSNIDFVEVHSENFFAQGGATQSVLAQASEKYAISLHSTAMGLGSAQGVPSHYLQKLKQLASTCNPILMSDHACFSWSQLKGQQVHAGDLLPLAYSEQTLMVLSHNIDRVQQSLGRSLLVENLSAYIQYSHACMPETEFLVRLAELTGCKLLVDLNNIIVTANNINAAQPLDYAQQWLAEIPTDMVGEIHLAGFTEVKEGELIIDDHSQAVSSQGWQLYRSALERFGKIPTLVEWDNNLPSWHTLVAEADKARMIAKQVFGDNNSSKITTAMTGLESEFIHE”, the “soluble on expression in E. coli” value was “not soluble”.

Take “MGSDKIHHHHHHMINQVYRLVSERQFEVANVDESLTGDVVVVRPTHLSICAADQRYYTGSRGKEMLSKKLPMALIHEGVGEVVYDATKEFKPGAKVVMIPNTPFENDPVIAENYLRSSKFRSSGYDGLMQDYVFMRRDRVVALPDDINMKVAAFSELISVAVHAILRFEGKSNANRESFGVWGDGNLGFITSLLLKNWYPDSKVYIFGKTPYKLDFFSFVDGAYAIDDVPADLVIDQAFECAGGMGSQYAVSQIIDVIKPEGTISLLGVSEYPIEFNSRMVLEKGLTVYGSSRSGRVDFEKTVEFLSTNKRGVEYLQNLVGEVHTVHSIQDVIEAFEADLRSPWGKSVMEWKI”: the “soluble on expression in E. coli” value was “not soluble”.

Regarding “EEQIMRRNEDSWLIDGATPLEDVMRALNIHTFPRDENYETIGGFMMYMLRKIPKKTDFVLYDKYKFEIIDTENFRIDQLMVSFRK”, the “soluble on expression in E. coli” value is “soluble”.

As to “QFDPSIVLTEVAMLLEKADINEEVERTKSHLKQFYGIILLEEPIGRKLDFLIQEMNREINTIGSKASSLKITEQVVEMKTTLEKIREQVQNVE”, the “soluble on expression in E. coli” value is reported as “not soluble”.

For “AAVLTQDKNTPTYGPANGKVTVIEFFDYQCVYCSRLAPVMEQVIKAHPQTRFAFKEWPIFGGRWESSLEAAKTGLQIYQQKGADAYLAYHNGIYATGHNEGKLTTADIQQQAKKAGFDAKKAADVEPVLQSINDLAQEIGLSGTPGVIVMPTTGATEASITVFPGLADKASLEAAIKKAGG”, the “soluble on expression in E. coli” value is recorded as “not soluble”.

As for “MRYERIKYILLFSLMHLVYSNSTFESNPEVRNKSNIYDLPPLLDVTSVNEETPIVKRPINERIENLEFDPRFEIDQAKLEISEDKLGSGFFGEVCYGLLSMRTSNTETDTLQKLSVAVKQSNDPTQENQEKMIEDETKLMCAIGRNPNILAIIGAVTANSGSARNLLIVEFVECGDLLKFLEEKKSIFKDELVYEKNGYLLPKSIRRKTYMFNENEDDVIEESLDSLCTSDLLSFSYQIAEGMEYLASIPCVHRDLALRNVLLNKNKTIRIADFGLARKYQVDGYYRITKGVGTPMPARWMAPEVMREGKCTEKSDVWSYGVSLYEMFSLGELPYSNVSNSDVFEHVVQGNQLPMPQYCHPKMYDRMKQFWNFDATFRPSFSKCVEFFEEHLSVSATNLLEQIQKTLKSEAERQSKLEDWIRRD”, the “soluble on expression in E. coli” value is “not soluble”.

As for “AFYINVVPDMVGGRLSSHDRDVLGLARQLAGAEGAVLAVVFGEHKETAFDSAGVDRLLLLDGNESDGYSPEQRVQGLRAVDNQFGPQRWVFPDSRTGGGELGRRFAASLGERPATRVWQVKGEHCTSRAGA”, the “soluble on expression in E. coli” value is reported as “not soluble”.

Regarding “MGSDKIHHHHHHMLITETFHDVQTSYGTTLRIYVYSPKIAGYPQAKFPGVILYSEIYQVTGPVRRFGQRIASEGYVVVAPAIYHNFMGPEALPYDVQGTDIGNEYKIKKPLESYDEDNKLCCDLLFQLPQFDGKRIGSTGMCLGGHLAFRALLDKRVTCATCFFPTDIHSRTLGLGQNDNSLERVSKELGNNQEMVLIFGTADTHVDPQGRDLIRKTLRDHGVKFTFLEILAAQHAFIRDEFSKGRFDSAITQSCLGFLFEQFNRKLRIDLGEFVDDNTPLEHVC”, the “soluble on expression in E. coli” value was “not soluble”.

Take “ETEPGHALVIWHDSTNEYYTMQQLTLAYEESRLLFEKAPQGIAMLDPSGEIVMANRSFGDLVGTTPVRLLGRNLEDFGVEEGTMEYVTPVLSDPEAVVHLDRSLETLRGKQKNVAMSFSSMGNVG”: the “soluble on expression in E. coli” value is reported as “not soluble”.

Consider “MYHDRRRTGFRQYETYMKQKQSADWQLDELLEELEALETQLNSSNGGDQLLLGVSGIPASSSRENVKSISTLPPPPPALSYHQTPQQPQLLHHHNNHLGYQNGIHQITSINSAASSCSSPDGDSAFGDSSSTESSNNRCRNSAFSSNDSCRDSLNTPSPTQVSPRNGELNAEEAKAQKIRQALEKMKEAKVTKIFVKFFVEDGEALQLLIDERWTVADTLKQLAEKNHIALMEDHCIVEEYPELYIKRVYEDHEKVVENIQMWVQDSPNKLYFMRRPDKYAFISRPELYLLTPKTSDHMEIPSGDQWTIDVKQKFVSEYFHREPVVPPEMEGFLYLKSDGRKSWKKHYFVLRPSGLYYAPKSKKPTTKDLTCLMNLHSNQVYTGIGWEKKYKSPTPWCISIKLTALQMKRSQFIKYICAEDEMTFKKWLVALRIAKNGAELLENYERACQIRRETLGPASSMSAASSSTAISEVPHSLSHHQRTPSVASSIQLSSHMMNNPTHPLSVNVRNQSPASFSVNSCQQSHPSRTSAKLEIQYDEQPTGTIKRAPLDVLRRVSRASTSSPTIPQEESDSDEEFPAPPPVASVMRMPPPVTPPKPCTPLTSKKAPPPPPKRSDTTKLQSASPMAPAKNDLEAALARRREKMATMECMGHHHHHHENLYFMGHHHHHHENLYFQSH”, for which the “soluble on expression in E. coli” value was “soluble”.
